We go through 5 proteins from article PMC4944284, “Identification of a Functionally Relevant Adeno-Associated Virus Rep68 Oligomeric Interface” (Journal of Virology, 2016).

Positions count from the first letter of the chain named. Names and notes keep the numbering of the source.

Data set [1] concerns the molecule itself. The data set can be described thus: AUC; sedimentation velocity, protein 10 uM, 25 mM Tris-HCl pH 8.0, 200 mM NaCl, 25,000 rpm, 20°C, SEDFIT (Fig. 1B, C).
Data set [2] deals with the molecule itself. The data set can be described thus: AUC; sedimentation velocity, all proteins at 1 mg/ml, else as in Materials and Methods (25 mM Tris-HCl pH 8.0, 200 mM NaCl, 20°C) (Fig. 2D).

B1: Rep68* (AAV2 Rep68 C151S) (enzyme)
chain: MPGFYEIVIKVPSDLDGHLPGISDSFVNWVAEKEWELPPDSDMDLNLIEQAPLTVAEKLQRDFLTEWRRVSKAPEALFFVQFEKGESYFHMHVLVETTGVKSMVLGRFLSQIREKLIQRIYRGIEPTLPNWFAVTKTRNGAGGGNKVVDESYIPNYLLPKTQPELQWAWTNMEQYLSACLNLTERKRLVAQHLTHVSQTQEQNKENQNPNSDAPVIRSKTSARYMELVGWLVDKGITSEKQWIQEDQASYISFNAASNSRSQIKAALDNAGKIMSLTKTAPDYLVGQQPVEDISSNRIYKILELNGYDPQYAASVFLGWATKKFGKRNTIWLFGPATTGKTNIAEAIAHTVPFYGCVNWTNENFPFNDCVDKMVIWWEEGKMTAKVVESAKAILGGSKVRVDQKCKSSAQIDPTPVIVTSNTNMCAVIDGNSTTFEHQQPLQDRMFKFELTRRLDHDFGKVTKQEVKDFFRWAKDHVVEVEHEFYVKKGGAKKRPAPSDADISEPKRVRESVAQPSTSDAEASINYADRLARGHSL
notes: source: E. coli BL21(DE3), purified (Ni column, gel filtration on Superdex 200)
In the case of B1, the binding result in data set [1] is “binds”.

B2: Rep68*-Y224D (enzyme)
chain: B1 chain with Y224D
notes: as for B1
For the protein B2, the binding result in data set [1] is given as “binds”.

B3: Rep68*-N254A (enzyme)
chain: B1 chain with N254A
notes: as for B1
For B3, the binding result in data set [2] is recorded as “binds”.

B4: Rep68*-Y224F (enzyme)
chain: B1 chain with Y224F
notes: also called Y224F mutant; source: E. coli BL21(DE3), purified (Ni column, gel filtration on Superdex 200)
For the protein B4, in data set [1], the binding result is recorded as “binds”.

B5: Rep68*-Y224P (enzyme)
chain: B1 chain with Y224P
notes: as for B1
Turning to B5, in data set [1], the binding result is on record as “binds”.
